Measured values from PMC4451422, “Catch me if you can: a biotinylated proteoliposome affinity assay for the investigation of assembly of the MexA-MexB-OprM efflux pump from Pseudomonas aeruginosa” (Frontiers in Microbiology, 2015).

T1: MexB (Pseudomonas aeruginosa, UniProt P52002 1-1046)
T1 construct: MexB, RND inner membrane transporter of the MexA-MexB-OprM efflux pump, Pseudomonas aeruginosa; Purified by the protocol of Mokhonov et al., 2005 with minor modifications; also called MexB alone; RND pump
T1 sequence: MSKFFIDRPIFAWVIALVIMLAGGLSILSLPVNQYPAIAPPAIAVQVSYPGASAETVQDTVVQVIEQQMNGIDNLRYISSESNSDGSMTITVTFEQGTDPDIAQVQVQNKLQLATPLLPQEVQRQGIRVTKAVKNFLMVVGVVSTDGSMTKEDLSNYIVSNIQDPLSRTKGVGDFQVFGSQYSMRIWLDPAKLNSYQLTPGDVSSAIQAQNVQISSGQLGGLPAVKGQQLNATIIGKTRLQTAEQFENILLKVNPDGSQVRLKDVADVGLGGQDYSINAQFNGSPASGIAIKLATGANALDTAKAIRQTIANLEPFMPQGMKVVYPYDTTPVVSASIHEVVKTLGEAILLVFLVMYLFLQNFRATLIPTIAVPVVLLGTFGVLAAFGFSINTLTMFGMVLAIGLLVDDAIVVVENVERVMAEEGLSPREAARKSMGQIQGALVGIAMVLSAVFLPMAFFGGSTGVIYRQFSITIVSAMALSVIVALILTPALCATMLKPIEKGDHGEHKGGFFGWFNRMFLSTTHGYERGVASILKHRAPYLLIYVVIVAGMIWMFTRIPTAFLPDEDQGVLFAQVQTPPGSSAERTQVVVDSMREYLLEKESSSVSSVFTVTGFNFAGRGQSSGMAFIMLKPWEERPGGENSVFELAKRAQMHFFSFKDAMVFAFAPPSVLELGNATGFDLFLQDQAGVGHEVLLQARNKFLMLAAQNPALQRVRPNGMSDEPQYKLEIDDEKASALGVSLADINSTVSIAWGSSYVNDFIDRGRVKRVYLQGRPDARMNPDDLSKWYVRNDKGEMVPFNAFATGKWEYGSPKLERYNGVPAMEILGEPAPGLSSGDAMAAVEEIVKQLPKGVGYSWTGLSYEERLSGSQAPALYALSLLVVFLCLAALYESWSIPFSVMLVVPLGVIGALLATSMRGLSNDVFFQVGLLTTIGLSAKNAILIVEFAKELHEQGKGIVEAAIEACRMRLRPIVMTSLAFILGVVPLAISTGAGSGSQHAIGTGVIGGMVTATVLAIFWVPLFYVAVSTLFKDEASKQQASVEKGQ

T2: MexAB: MexA (palmitoylated) and MexB reconstituted together in biotinylated proteoliposomes (Pseudomonas aeruginosa, UniProt P52477 24-383; P52002 1-1046, palmitoylated (lipid anchor); residue not stated)
T2 construct: MexA, Pseudomonas aeruginosa, palmitoylated version; as m1; MexB, Pseudomonas aeruginosa; as m3; also called MexAB proteoliposomes; MexA and MexB; source: each protein from C43 ΔAcrB strain, purified; reconstituted together in proteoliposomes with biotinylated lipids
T2 sequence 1: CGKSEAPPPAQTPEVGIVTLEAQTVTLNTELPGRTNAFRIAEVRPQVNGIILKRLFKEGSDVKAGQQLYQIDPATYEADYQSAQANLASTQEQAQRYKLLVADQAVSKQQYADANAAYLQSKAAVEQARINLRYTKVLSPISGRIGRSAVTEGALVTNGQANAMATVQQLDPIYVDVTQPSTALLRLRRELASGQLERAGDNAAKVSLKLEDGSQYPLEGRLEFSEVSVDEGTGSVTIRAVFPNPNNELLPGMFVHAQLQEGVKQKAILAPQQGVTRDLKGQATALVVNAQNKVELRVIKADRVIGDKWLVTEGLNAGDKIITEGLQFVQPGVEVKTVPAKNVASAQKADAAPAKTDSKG
T2 sequence 2: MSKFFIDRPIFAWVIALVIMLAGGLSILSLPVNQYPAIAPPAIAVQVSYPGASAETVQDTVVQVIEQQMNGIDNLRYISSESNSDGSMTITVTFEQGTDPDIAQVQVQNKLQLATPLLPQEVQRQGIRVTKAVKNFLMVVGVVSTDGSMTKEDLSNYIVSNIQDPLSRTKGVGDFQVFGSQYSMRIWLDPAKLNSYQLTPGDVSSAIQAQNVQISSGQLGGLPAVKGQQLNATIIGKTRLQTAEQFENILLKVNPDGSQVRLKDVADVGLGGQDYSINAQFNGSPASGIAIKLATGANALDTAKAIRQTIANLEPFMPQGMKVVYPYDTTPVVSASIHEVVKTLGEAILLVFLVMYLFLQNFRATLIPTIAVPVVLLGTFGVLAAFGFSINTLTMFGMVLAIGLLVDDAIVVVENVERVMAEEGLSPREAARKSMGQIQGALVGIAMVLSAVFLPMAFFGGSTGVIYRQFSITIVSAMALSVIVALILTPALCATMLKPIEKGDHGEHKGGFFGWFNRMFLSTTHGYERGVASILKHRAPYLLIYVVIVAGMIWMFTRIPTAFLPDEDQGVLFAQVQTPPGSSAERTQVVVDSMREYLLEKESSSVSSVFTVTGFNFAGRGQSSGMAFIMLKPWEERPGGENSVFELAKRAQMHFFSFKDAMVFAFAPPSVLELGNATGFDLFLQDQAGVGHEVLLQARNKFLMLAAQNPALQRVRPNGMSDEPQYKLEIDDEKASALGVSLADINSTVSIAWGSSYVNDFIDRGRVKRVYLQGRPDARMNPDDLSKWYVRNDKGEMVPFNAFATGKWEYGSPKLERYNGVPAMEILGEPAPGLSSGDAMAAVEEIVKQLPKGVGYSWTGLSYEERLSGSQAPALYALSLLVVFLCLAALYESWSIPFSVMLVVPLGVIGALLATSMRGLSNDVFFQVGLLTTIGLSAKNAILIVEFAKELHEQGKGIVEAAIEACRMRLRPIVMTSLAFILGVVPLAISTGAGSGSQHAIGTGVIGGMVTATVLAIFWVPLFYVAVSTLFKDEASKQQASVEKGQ

T3: MexAB_(D407N): MexA (palmitoylated) and the inactive MexB D407N mutant reconstituted together in biotinylated … (Pseudomonas aeruginosa, UniProt P52477 24-383; P52002 1-1046, D407N, palmitoylated (lipid anchor); residue not stated)
T3 construct: MexA, Pseudomonas aeruginosa, palmitoylated version; as m1; also called MexA and MexB_(D407N); source: reconstituted together in proteoliposomes with biotinylated lipids
T3 sequence (looked up) 1: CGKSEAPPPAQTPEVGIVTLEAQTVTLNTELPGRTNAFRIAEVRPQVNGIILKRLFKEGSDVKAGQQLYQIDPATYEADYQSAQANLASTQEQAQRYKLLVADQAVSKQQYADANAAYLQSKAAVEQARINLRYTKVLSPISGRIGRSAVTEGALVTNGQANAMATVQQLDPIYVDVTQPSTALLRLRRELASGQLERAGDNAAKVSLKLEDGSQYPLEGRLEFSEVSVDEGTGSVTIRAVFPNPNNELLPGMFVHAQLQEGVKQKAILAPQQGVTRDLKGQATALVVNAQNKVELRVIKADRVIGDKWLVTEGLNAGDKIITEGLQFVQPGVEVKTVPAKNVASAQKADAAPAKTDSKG
T3 sequence (looked up) 2: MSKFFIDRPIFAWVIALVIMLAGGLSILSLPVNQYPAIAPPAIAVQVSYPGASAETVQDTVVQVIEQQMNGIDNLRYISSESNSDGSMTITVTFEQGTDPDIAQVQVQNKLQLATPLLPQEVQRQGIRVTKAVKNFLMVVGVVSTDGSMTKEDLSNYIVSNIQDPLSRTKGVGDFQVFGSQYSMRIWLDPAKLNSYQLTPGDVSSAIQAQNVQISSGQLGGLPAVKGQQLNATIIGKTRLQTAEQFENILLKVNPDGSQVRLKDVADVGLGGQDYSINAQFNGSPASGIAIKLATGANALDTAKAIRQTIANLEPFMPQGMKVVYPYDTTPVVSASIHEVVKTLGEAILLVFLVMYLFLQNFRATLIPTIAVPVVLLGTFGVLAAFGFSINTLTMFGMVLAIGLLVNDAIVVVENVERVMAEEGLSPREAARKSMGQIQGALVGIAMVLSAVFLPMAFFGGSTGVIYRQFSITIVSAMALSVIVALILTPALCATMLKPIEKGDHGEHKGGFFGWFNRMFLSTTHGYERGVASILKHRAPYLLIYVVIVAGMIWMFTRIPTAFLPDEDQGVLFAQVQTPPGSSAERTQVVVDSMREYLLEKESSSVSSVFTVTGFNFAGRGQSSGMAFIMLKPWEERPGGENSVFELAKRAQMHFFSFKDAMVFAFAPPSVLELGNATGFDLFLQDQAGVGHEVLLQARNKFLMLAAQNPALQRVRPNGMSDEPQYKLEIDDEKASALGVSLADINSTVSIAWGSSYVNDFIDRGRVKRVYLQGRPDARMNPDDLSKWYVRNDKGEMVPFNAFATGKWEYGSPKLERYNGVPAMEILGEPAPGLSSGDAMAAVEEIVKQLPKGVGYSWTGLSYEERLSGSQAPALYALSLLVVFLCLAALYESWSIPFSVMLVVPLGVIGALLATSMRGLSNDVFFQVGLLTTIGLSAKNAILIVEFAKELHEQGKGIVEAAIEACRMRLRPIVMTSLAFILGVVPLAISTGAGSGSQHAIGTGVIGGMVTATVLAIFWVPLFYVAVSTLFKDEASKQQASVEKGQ


Legend:
Experiment in all cases: pull-down; MagStrep (streptavidin) magnetic beads sediment biotin-lipid proteoliposomes with MexB or MexAB; OprM in separate proteoliposomes; non-energized: 25 mM Hepes pH7, 100 mM K2SO4, 2 mM MgSO4; 20 min at room temperature; pellets on SDS-PAGE, Coomassie
Settings in all cases: both partners purified
[1] = molecular target: T1, MexB
[2] = molecular target: T2, MexAB: MexA (palmitoylated) and MexB …
[3] = molecular target: T3, MexAB_(D407N): MexA (palmitoylated) and …

Binder | binding result [1] | binding result [2] | binding result [3]
MexAnp, truncated "cysteine-less" form of MexA without its first 24 residues (non-palmitoylated, soluble) (domain or fragment, MexA, Pseudomonas aeruginosa, without its first 24 residues; non-palmitoylated, soluble; no point mutation is printed; also called soluble version of MexA; soluble MexA; source: generated in the laboratory, produced and purified) GKSEAPPPAQTPEVGIVTLEAQTVTLNTELPGRTNAFRIAEVRPQVNGIILKRLFKEGSDVKAGQQLYQIDPATYEADYQSAQANLASTQEQAQRYKLLVADQAVSKQQYADANAAYLQSKAAVEQARINLRYTKVLSPISGRIGRSAVTEGALVTNGQANAMATVQQLDPIYVDVTQPSTALLRLRRELASGQLERAGDNAAKVSLKLEDGSQYPLEGRLEFSEVSVDEGTGSVTIRAVFPNPNNELLPGMFVHAQLQEGVKQKAILAPQQGVTRDLKGQATALVVNAQNKVELRVIKADRVIGDKWLVTEGLNAGDKIITEGLQFVQPGVEVKTVPAKNVASAQKADAAPAKTDSKG | binds | – | –
OprM (natural protein, OprM, outer membrane channel of the MexA-MexB-OprM efflux pump, Pseudomonas aeruginosa; Purified by the protocol of Phan et al., 2010 with minor modifications; also called OMF; OprM proteoliposomes) CSLIPDYQRPEAPVAAAYPQGQAYGQNTGAAAVPAADIGWREFFRDPQLQQLIGVALENNRDLRVAALNVEAFRAQYRIQRADLFPRIGVDGSGTRQRLPGDLSTTGSPAISSQYGVTLGTTAWELDLFGRLRSLRDQALEQYLATEQAQRSAQTTLVASVATAYLTLKADQAQLQLTKDTLGTYQKSFDLTQRSYDVGVASALDLRQAQTAVEGARATLAQYTRLVAQDQNALVLLLGSGIPANLPQGLGLDQTLLTEVPAGLPSDLLQRRPDILEAEHQLMAANASIGAARAAFFPSISLTANAGTMSRQLSGLFDAGSGSWLFQPSINLPIFTAGSLRASLDYAKIQKDINVAQYEKAIQTAFQEVADGLAARGTFTEQLQAQRDLVKASDEYYQLADKRYRTGVDNYLTLLDAQRSLFTAQQQLITDRLNQLTSEVNLYKALGGGWNQQTVTQQQTAKKEDPQA | – | binds | binds
